Sequences and labels used below:
B1: wild-type canine IgGB (65) mAb (antibody, part only; not given: variable domains of unnamed mAb, not shown: another chain or arm of the molecule; small tags and cut ends)
constant: ASTTAPSVFPLAPSCGSTSGSTVALACLVSGYFPEPVTVSWNSGSLTSGVHTFPSVLQSSGLYSLSSMVTVPSSRWPSETFTCNVAHPASKTKVDKPVPKRENGRVPRPPDCPKCPAPEMLGGPSVFIFPPKPKDTLLIARTPEVTCVVVDLDPEDPEVQISWFVDGKQMQTAKTQPREEQFNGTYRVVSVLPIGHQDWLKGKQFTCKVNNKALPSPIERTISKARGQAHQPSVYVLPPSREELSKNTVSLTCLIKDFFPPDIDVEWQSNGQQEPESKYRTTPPQLDEDGSYFLYSKLSVDKSRWQRGDTFICAVMHEALHNHYTQESLSHSPGK
B2: canine IgGB (65) mAb with mutation A426I (antibody, part only; not given: Variable domains, not shown: another chain or arm of the molecule)
constant: B1 constant with A314I
B3: canine IgGB (65) mAb with mutation A426G (antibody, part only; not given: variable domains of unnamed mAb, not shown: another chain or arm of the molecule)
constant: B1 constant with A314G
B4: canine IgGB (65) mAb with mutation Q311T (antibody, part only; not given: Variable domains, not shown: another chain or arm of the molecule)
constant: B1 constant with Q197T
B5: canine IgGB (65) mAb with mutation Q311L (antibody, part only; not given: Variable domains, not shown: another chain or arm of the molecule)
constant: B1 constant with Q197L
B6: canine IgGB (65) mAb with mutation D312E (antibody, part only; not given: Variable domains, not shown: another chain or arm of the molecule)
constant: B1 constant with D198E
B7: canine IgGB (65) mAb with mutation A426M (antibody, part only; not given: Variable domains, not shown: another chain or arm of the molecule)
constant: B1 constant with A314M
B8: canine IgGB (65) mAb with mutation D312M (antibody, part only; not given: Variable domains, not shown: another chain or arm of the molecule)
constant: B1 constant with D198M
B9: canine IgGB (65) mAb with mutation Q311P (antibody, part only; not given: variable domains of unnamed mAb, not shown: another chain or arm of the molecule)
constant: B1 constant with Q197P
B10: canine IgGB (65) mAb with mutation Q311K (antibody, part only; not given: Variable domains, not shown: another chain or arm of the molecule)
constant: B1 constant with Q197K
B11: canine IgGB (65) mAb with mutation A426K (antibody, part only; not given: Variable domains, not shown: another chain or arm of the molecule)
constant: B1 constant with A314K
B12: canine IgGB (65) mAb with mutation D312C (antibody, part only; not given: variable domains of unnamed mAb, not shown: another chain or arm of the molecule)
constant: B1 constant with D198C
B13: canine IgGB (65) mAb with mutation D312R (antibody, part only; not given: variable domains of unnamed mAb, not shown: another chain or arm of the molecule)
constant: B1 constant with D198R
B14: canine IgGB (65) mAb with mutation T286C (antibody, part only; not given: variable domains of unnamed mAb, not shown: another chain or arm of the molecule)
constant: B1 constant with T172C
B15: canine IgGB (65) mAb with mutation D312Y (antibody, part only; not given: variable domains of unnamed mAb, not shown: another chain or arm of the molecule)
constant: B1 constant with D198Y
B16: canine IgGB (65) mAb with mutation D312V (antibody, part only; not given: variable domains of unnamed mAb, not shown: another chain or arm of the molecule)
constant: B1 constant with D198V
B17: canine IgGB (65) mAb with mutation Q311W (antibody, part only; not given: variable domains of unnamed mAb, not shown: another chain or arm of the molecule)
constant: B1 constant with Q197W
B18: canine IgGB (65) mAb with mutation Q311H (antibody, part only; not given: variable domains of unnamed mAb, not shown: another chain or arm of the molecule)
constant: B1 constant with Q197H
B19: canine IgGB (65) mAb with mutation A426L (antibody, part only; not given: variable domains of unnamed mAb, not shown: another chain or arm of the molecule)
constant: B1 constant with A314L
B20: canine IgGB (65) mAb with mutation D312H (antibody, part only; not given: Variable domains, not shown: another chain or arm of the molecule)
constant: B1 constant with D198H
B21: canine IgGB (65) mAb with mutation T286D (antibody, part only; not given: Variable domains, not shown: another chain or arm of the molecule)
constant: B1 constant with T172D
B22: canine IgGB (65) mAb with mutation A426E (antibody, part only; not given: Variable domains, not shown: another chain or arm of the molecule)
constant: B1 constant with A314E
B23: canine IgGB (65) mAb with mutation T286R (antibody, part only; not given: Variable domains, not shown: another chain or arm of the molecule)
constant: B1 constant with T172R
B24: canine IgGB (65) mAb with mutation D312K (antibody, part only; not given: variable domains of unnamed mAb, not shown: another chain or arm of the molecule)
constant: B1 constant with D198K
B25: canine IgGB (65) mAb with mutation Q311S (antibody, part only; not given: variable domains of unnamed mAb, not shown: another chain or arm of the molecule)
constant: B1 constant with Q197S
B26: canine IgGB (65) mAb with mutation D312I (antibody, part only; not given: Variable domains, not shown: another chain or arm of the molecule)
constant: B1 constant with D198I
B27: canine IgGB (65) mAb with mutation Q311Y (antibody, part only; not given: variable domains of unnamed mAb, not shown: another chain or arm of the molecule)
constant: B1 constant with Q197Y
B28: canine IgGB (65) mAb with mutation T286E (antibody, part only; not given: Variable domains, not shown: another chain or arm of the molecule)
constant: B1 constant with T172E
B29: canine IgGB (65) mAb with mutation Q311C (antibody, part only; not given: Variable domains, not shown: another chain or arm of the molecule)
constant: B1 constant with Q197C
B30: canine IgGB (65) mAb with mutation T286Q (antibody, part only; not given: Variable domains, not shown: another chain or arm of the molecule)
constant: B1 constant with T172Q
B31: canine IgGB (65) mAb with mutation D312L (antibody, part only; not given: Variable domains, not shown: another chain or arm of the molecule)
constant: B1 constant with D198L
B32: canine IgGB (65) mAb with mutation D312F (antibody, part only; not given: Variable domains, not shown: another chain or arm of the molecule)
constant: B1 constant with D198F
B33: canine IgGB (65) mAb with mutation T286V (antibody, part only; not given: variable domains of unnamed mAb, not shown: another chain or arm of the molecule)
constant: B1 constant with T172V
B34: canine IgGB (65) mAb with mutation A426N (antibody, part only; not given: Variable domains, not shown: another chain or arm of the molecule)
constant: B1 constant with A314N
B35: canine IgGB (65) mAb with mutation T286P (antibody, part only; not given: Variable domains, not shown: another chain or arm of the molecule)
constant: B1 constant with T172P
B36: canine IgGB (65) mAb with mutation Q311N (antibody, part only; not given: variable domains of unnamed mAb, not shown: another chain or arm of the molecule)
constant: B1 constant with Q197N
B37: canine IgGB (65) mAb with mutation D312W (antibody, part only; not given: Variable domains, not shown: another chain or arm of the molecule)
constant: B1 constant with D198W
B38: canine IgGB (65) mAb with mutation D312Q (antibody, part only; not given: Variable domains, not shown: another chain or arm of the molecule)
constant: B1 constant with D198Q
B39: canine IgGB (65) mAb with mutation Q311M (antibody, part only; not given: Variable domains, not shown: another chain or arm of the molecule)
constant: B1 constant with Q197M
B40: canine IgGB (65) mAb with mutation Q311G (antibody, part only; not given: Variable domains, not shown: another chain or arm of the molecule)
constant: B1 constant with Q197G
B41: canine IgGB (65) mAb with mutation D312T (antibody, part only; not given: Variable domains, not shown: another chain or arm of the molecule)
constant: B1 constant with D198T
B42: canine IgGB (65) mAb with mutation D312G (antibody, part only; not given: Variable domains, not shown: another chain or arm of the molecule)
constant: B1 constant with D198G
B43: canine IgGB (65) mAb with mutation D312A (antibody, part only; not given: variable domains of unnamed mAb, not shown: another chain or arm of the molecule)
constant: B1 constant with D198A
B44: canine IgGB (65) mAb with mutation T286H (antibody, part only; not given: variable domains of unnamed mAb, not shown: another chain or arm of the molecule)
constant: B1 constant with T172H
B45: canine IgGB (65) mAb with mutation Q311I (antibody, part only; not given: variable domains of unnamed mAb, not shown: another chain or arm of the molecule)
constant: B1 constant with Q197I
B46: canine IgGB (65) mAb with mutation T286G (antibody, part only; not given: Variable domains, not shown: another chain or arm of the molecule)
constant: B1 constant with T172G
B47: canine IgGB (65) mAb with mutation Q311E (antibody, part only; not given: Variable domains, not shown: another chain or arm of the molecule)
constant: B1 constant with Q197E
B48: canine IgGB (65) mAb with mutation D312N (antibody, part only; not given: Variable domains, not shown: another chain or arm of the molecule)
constant: B1 constant with D198N
B49: canine IgGB (65) mAb with mutation Q311D (antibody, part only; not given: Variable domains, not shown: another chain or arm of the molecule)
constant: B1 constant with Q197D
B50: canine IgGB (65) mAb with mutation Q311R (antibody, part only; not given: Variable domains, not shown: another chain or arm of the molecule)
constant: B1 constant with Q197R
B51: canine IgGB (65) mAb with mutation T286N (antibody, part only; not given: Variable domains, not shown: another chain or arm of the molecule)
constant: B1 constant with T172N
B52: canine IgGB (65) mAb with mutation T286S (antibody, part only; not given: Variable domains, not shown: another chain or arm of the molecule)
constant: B1 constant with T172S
B53: canine IgGB (65) mAb with mutation D312S (antibody, part only; not given: variable domains of unnamed mAb, not shown: another chain or arm of the molecule)
constant: B1 constant with D198S
B54: canine IgGB (65) mAb with mutation A426D (antibody, part only; not given: Variable domains, not shown: another chain or arm of the molecule)
constant: B1 constant with A314D
B55: canine IgGB (65) mAb with mutation A426C (antibody, part only; not given: Variable domains, not shown: another chain or arm of the molecule)
constant: B1 constant with A314C
B56: canine IgGB (65) mAb with mutation Q311F (antibody, part only; not given: Variable domains, not shown: another chain or arm of the molecule)
constant: B1 constant with Q197F

Numbering of substitutions follows the chain as printed. Names may count otherwise.

The target of the test is canine FcRn complex (FcRn-alpha subunit and beta-microglobulin), His-tagged, biotin labeled (canine). The test is described as follows: SPR (Biacore), biotin-FcRn captured on SA surface, IgG flowed over, pH 6, 15 C. (In general: SPR reads the build-up and loss of mass on a sensor chip optically.)
With B1, the Kd (usually the constant that tells how readily two partners part at equilibrium) was 30.7 nM. This lies in the double-digit nanomolar range. B2 showed a Kd of 8.54 nM.

Turning to B3, the Kd came out at 7.36 nM. The Kd values of the last two molecules are within 1.5-fold of each other. As for B4, the Kd was found to be 10.7 nM.

Turning to B5, the Kd came out at 19.1 nM. For B6 the value was 14.1 nM; for B7, 8.84 nM; for B8, 16.2 nM. Take B9: the equilibrium dissociation constant (Kd) worked out at 21.2 nM. Turning to B10, the dissociation constant Kd was 6.23 nM. On to B11, for which the Kd stood at 3.81 nM.

B12 returned a Kd of 19 nM. Compared with the last molecule, the Kd is about 5-fold higher. In turn, B13 registered a Kd of 23.1 nM. B14: the Kd came out at 8.19 nM. For B15 the value was 25.1 nM. For B16 the value was 14.1 nM; for B17, 2.49 nM. Turning to B18, the Kd stood at 6.66 nM. The molecule B19 showed a Kd of 5.17 nM. The Kd values of the last two molecules are within 1.5-fold of each other. As to B20, the Kd is 9.72 nM. Molecule B21 displayed a Kd of 6.83 nM. In the case of B22 it was 4.77 nM; in that of B23, 4.73 nM. For B24 the value was 24 nM; for B25, 8.7 nM. For B26 the value was 21.5 nM; for B27, 2.61 nM. As to B28, the dissociation constant Kd turned out to be 8.66 nM. Regarding B29, the Kd worked out at 10.3 nM. Regarding B30, the Kd came to 8.58 nM. For B31 the value was 12.1 nM.

B32 yielded a Kd of 21.9 nM.

Consider B33, for which the Kd worked out at 8.36 nM. Turning to B34, the Kd was found to be 5.33 nM. B35 gave a Kd of 6.73 nM. This Kd and that of the molecule before are within 1.5-fold of each other. Take B36: the Kd came to 10.1 nM. For B37 the value was 14.4 nM; for B38, 9.97 nM. For B39, the dissociation constant (Kd) is 13.1 nM. B40 displayed a Kd of 8.42 nM. B41 yielded a Kd of 10.6 nM. This Kd and that of the molecule before are within 1.5-fold of each other. B42 gave a Kd of 26.8 nM. B43 had a Kd of 10.3 nM.

On to B44, for which the dissociation constant (Kd) worked out at 5.07 nM. As for B45, the Kd came to 7.94 nM.

For the molecule B46, the Kd amounted to 6.48 nM.

Regarding B47, the Kd was found to be 9.39 nM. B48: the Kd was 17.1 nM. In the case of B49 it was 13.3 nM; in that of B50, 15.2 nM; in that of B51, 6.32 nM.

B52 registered a dissociation constant (Kd) of 6.68 nM. B53 showed a Kd of 14.8 nM.

As for B54, the Kd is 14.9 nM.

The molecule B55 came in with a Kd of 8.86 nM. As to B56, the Kd came to 33 nM.
